Experimental findings from patent US20230235072A1 (DENALI THERAPEUTICS, published 2023) are described below.

Where two headings read alike, the source gives them in different places.

Assay [1] addresses T1, CH3C.35 Fc-Fab fusion (bivalent) (Homo sapiens (Human), UniProt P0DOX5 230-449 = IgG part).
T1 construct: bivalent for TfR; also called CH3C.35.bi; CHC3.35
T1 Fc: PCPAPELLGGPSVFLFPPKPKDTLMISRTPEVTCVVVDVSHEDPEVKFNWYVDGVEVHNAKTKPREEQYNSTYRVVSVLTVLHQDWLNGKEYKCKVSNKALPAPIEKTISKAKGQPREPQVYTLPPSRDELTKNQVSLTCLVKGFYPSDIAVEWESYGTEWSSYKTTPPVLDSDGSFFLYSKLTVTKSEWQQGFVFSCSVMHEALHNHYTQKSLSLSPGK
Briefly: phage ELISA: phage-displayed human TfR apical domain, dilution series on plate-coated CH3C.35; OD650. The procedure: (§1) The plates were subsequently washed and anti-M13-HRP was added, and after additional washing the plates were developed with TMB substrate and quenched with 2N […].
In general terms: In an ELISA, binding on a coated surface is turned into a signal by an enzyme label.

Assay [2] addresses T2, CH3C.18 Fc-Fab fusion (Homo sapiens (Human), UniProt P0DOX5 230-449 = IgG part).
T2 construct: bivalent for TfR; also called CH3C.18.1.18
T2 Fc: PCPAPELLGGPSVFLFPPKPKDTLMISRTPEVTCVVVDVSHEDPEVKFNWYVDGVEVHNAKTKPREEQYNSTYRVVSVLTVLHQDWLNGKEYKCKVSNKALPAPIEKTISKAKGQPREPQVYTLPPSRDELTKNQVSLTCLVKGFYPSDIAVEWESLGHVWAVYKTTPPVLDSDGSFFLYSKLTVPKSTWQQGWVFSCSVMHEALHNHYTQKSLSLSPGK
In words: phage ELISA: phage-displayed human TfR apical domain, dilution series on plate-coated CH3C.18; OD650. Here is the method: as §1

Assay [3] addresses T1, CH3C.35 Fc-Fab fusion (bivalent). In words: phage ELISA: phage-displayed TfR apical domain, dilution series on plate-coated CH3C.35; OD650. Here is the method: as §1
Assay [4] has as its target streptavidin (Natural streptavidin is a homotetramer; one chain is given.). Briefly: phage ELISA, phage dilution series on plate-coated streptavidin; OD650.
Assay [5] has as its target T3, human transferrin receptor (TfR) ectodomain (ECD) (human, UniProt P02786 121-760, biotinylated where captured on streptavidin).
T3 construct: also called human TfR; huTfR
In words: phage ELISA, phage dilution series on plate-coated human TfR without and with holo-Tf; OD650. The source says: The CH2C variants were expressed as Fc fusions to Fab fragments by cloning into an expression vector containing an anti-BACE1 benchmark variable region sequence.
Target sequence in this assay (P02786 121-760): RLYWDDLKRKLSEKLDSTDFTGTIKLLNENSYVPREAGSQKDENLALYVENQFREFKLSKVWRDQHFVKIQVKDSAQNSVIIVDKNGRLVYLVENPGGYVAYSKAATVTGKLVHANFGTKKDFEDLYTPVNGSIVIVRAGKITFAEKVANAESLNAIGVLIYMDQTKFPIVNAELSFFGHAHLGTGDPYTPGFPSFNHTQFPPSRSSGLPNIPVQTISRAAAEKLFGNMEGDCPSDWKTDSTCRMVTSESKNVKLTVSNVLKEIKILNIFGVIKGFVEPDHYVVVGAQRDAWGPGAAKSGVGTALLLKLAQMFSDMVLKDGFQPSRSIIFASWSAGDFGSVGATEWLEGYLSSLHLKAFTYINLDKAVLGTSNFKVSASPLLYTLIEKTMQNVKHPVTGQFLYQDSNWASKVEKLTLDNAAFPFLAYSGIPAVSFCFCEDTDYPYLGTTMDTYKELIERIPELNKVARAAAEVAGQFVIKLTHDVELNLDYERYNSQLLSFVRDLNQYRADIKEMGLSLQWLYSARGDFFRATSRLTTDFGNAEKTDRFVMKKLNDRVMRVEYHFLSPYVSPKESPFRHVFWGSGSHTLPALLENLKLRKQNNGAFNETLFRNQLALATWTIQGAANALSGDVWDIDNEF

In assay [6] the target is T4, cynomolgus transferrin receptor (TfR) ectodomain (ECD) (cynomolgus, UniProt Q5RDH6 121-760 (Pongo abelii entry), biotinylated where captured on streptavidin).
T4 construct: also called cyno TfR; cynoTfR
T4 chain: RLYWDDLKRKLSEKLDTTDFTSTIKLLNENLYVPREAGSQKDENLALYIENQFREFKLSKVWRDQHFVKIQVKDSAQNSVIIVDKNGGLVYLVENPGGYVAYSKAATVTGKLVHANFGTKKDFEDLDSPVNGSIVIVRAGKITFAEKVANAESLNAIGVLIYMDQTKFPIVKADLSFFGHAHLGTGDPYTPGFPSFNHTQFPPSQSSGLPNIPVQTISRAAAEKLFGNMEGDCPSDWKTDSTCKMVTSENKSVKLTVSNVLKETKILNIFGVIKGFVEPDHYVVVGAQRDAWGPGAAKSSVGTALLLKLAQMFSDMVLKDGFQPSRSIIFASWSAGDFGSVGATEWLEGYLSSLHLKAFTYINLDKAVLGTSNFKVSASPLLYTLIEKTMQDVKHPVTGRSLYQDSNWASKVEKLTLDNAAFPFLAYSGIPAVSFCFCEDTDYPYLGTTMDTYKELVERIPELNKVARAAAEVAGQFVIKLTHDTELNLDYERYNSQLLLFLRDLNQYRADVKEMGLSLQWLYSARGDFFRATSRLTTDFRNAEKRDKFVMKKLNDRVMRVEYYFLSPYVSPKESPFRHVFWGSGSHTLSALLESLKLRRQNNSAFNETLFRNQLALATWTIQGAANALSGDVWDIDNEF
In words: phage ELISA: Fc variant on phage, titrated by OD268 of the phage solution on plate-coated cyno TfR; OD650.

Assay [7] has as its target T3, human transferrin receptor (TfR) …. In words: phage ELISA: phage at about its EC50 on plate-coated human TfR with soluble holo-Tf added at 0.007-5 uM; OD650.
The target in assay [8] is T4, cynomolgus transferrin receptor (TfR) …. Briefly: phage ELISA: Fc variant on phage, titrated by OD268 of the phage solution on plate-coated cyno TfR; OD650.
Assay [9] has as its target T3, human transferrin receptor (TfR) …. In words: phage ELISA: Fc variant on phage, titrated by OD268 of the phage solution on plate-coated human TfR; OD650.
Assay [10] deals with T4, cynomolgus transferrin receptor (TfR) …. In words: phage ELISA: Fc variant on phage, titrated by OD268 of the phage solution on plate-coated cyno TfR; OD650.
Assay [11] has the same target. The assay is described as above.
Assay [12] concerns the target T3, human transferrin receptor (TfR) …. Briefly: competition phage ELISA: phage-displayed clone at about its EC50 on plate-coated human TfR, soluble human TfR varied as competitor; OD650.

B1: loop-truncated human TfR apical domain displayed on phage (receptor)
chain: SSGLPNIPVQTISRAAAEKLFGNMEGDCPSDWKTDSTCRMVTSESKNVKLTVSNDSAQNSVIIVDKNGRLVYLVENPGGYVAYSKAATVTGKLVHANFGTKKDFEDLYTPVNGSIVIVRAGKITFAEKVANAESLNAIGVLIYMDQTKFPIVNAELSGP
notes: fused to phage coat, Myc-tagged; also called human TfR apical domain (phage)
As to B1, the binding result in [1] and in assay [2] was “binds” each time.

B2: loop-truncated cynomolgus TfR apical domain displayed on phage (receptor)
chain: SSGLPNIPVQTISRAAAEKLFGNMEGDCPSDWKTDSTCKMVTSENKSVKLTVSNDSAQNSVIIVDKNGGLVYLVENPGGYVAYSKAATVTGKLVHANFGTKKDFEDLDSPVNGSIVIVRAGKITFAEKVANAESLNAIGVLIYMDQTKFPIVKADLSGP
notes: fused to phage coat, Myc-tagged; also called cyno apical domain (phage)
Consider B2, for which, in assay [3], the binding result is listed as “binds”.

B3: Clone CH2C.17 (designed binder)
chain: PCPAPELLGGPSVFLFPPKPKDTLMISRTPEVTCVVVDMLWPVPEVKFNWYVDGVEVHNAKTKPREEVYHRPYRVVSVLTVLHQDWLNGKEYKCKVSNKALPAPIEKTISKAKGQPREPQVYTLPPSRDELTKNQVSLTCLVKGFYPSDIAVEWESNGQPENNYKTTPPVLDSDGSFFLYSKLTVDKSRWQQGNVFSCSVMHEALHNHYTQKSLSLSPGK
notes: modified Fc; found by yeast display, tested on phage with holo-Tf
For the molecule B3, the binding result in [4] is listed as “no binding (tested: dilution 1 (least diluted phage))”; in [5], “binds”.

B4: Clone CH2C.22 (designed binder)
chain: PCPAPELLGGPSVFLFPPKPKDTLMISRTPEVTCVVVDDDLTFQEVKFNWYVDGVEVHNAKTKPREELYVTPYRVVSVLTVLHQDWLNGKEYKCKVSNKALPAPIEKTISKAKGQPREPQVYTLPPSRDELTKNQVSLTCLVKGFYPSDIAVEWESNGQPENNYKTTPPVLDSDGSFFLYSKLTVDKSRWQQGNVFSCSVMHEALHNHYTQKSLSLSPGK
notes: as for B3
Take B4: the binding result in [4] is listed as “no binding (tested: dilution 1 (least diluted phage))”; in assay [5], “binds”.

B5: Clone CH2A2.4 (designed binder)
chain: PCPAPELLGGPSVFLFPPKPKDTLMISRTPEVTCVVVDVSHEDPEVSFEWYVDGVPVRWEWQWPREEQYNSTYRVVSVLTVLHQDWLNGKEYKCKVSNKALPAPIEKTISKAKGQPREPQVYTLPPSRDELTKNQVSLTCLVKGFYPSDIAVEWESNGQPENNYKTTPPVLDSDGSFFLYSKLTVDKSRWQQGNVFSCSVMHEALHNHYTQKSLSLSPGK
On to B5, for which the binding result in assay [6] and in assay [7] was “binds” in each case.

B6: Clone CH2A2.5 (designed binder)
chain: PCPAPELLGGPSVFLFPPKPKDTLMISRTPEVTCVVVDVSHEDPEVAFTWYVDGVPVRWEWQNPREEQYNSTYRVVSVLTVLHQDWLNGKEYKCKVSNKALPAPIEKTISKAKGQPREPQVYTLPPSRDELTKNQVSLTCLVKGFYPSDIAVEWESNGQPENNYKTTPPVLDSDGSFFLYSKLTVDKSRWQQGNVFSCSVMHEALHNHYTQKSLSLSPGK
Regarding B6, the binding result in [8] and in assay [9] was “binds” throughout.

B7: Clone CH2A2.16 (designed binder)
chain: PCPAPELLGGPSVFLFPPKPKDTLMISRTPEVTCVVVDVSHEDPEVWFEWYVDGVFVGVAYDVPREEQYNSTYRVVSVLTVLHQDWLNGKEYKCKVSNKALPAPIEKTISKAKGQPREPQVYTLPPSRDELTKNQVSLTCLVKGFYPSDIAVEWESNGQPENNYKTTPPVLDSDGSFFLYSKLTVDKSRWQQGNVFSCSVMHEALHNHYTQKSLSLSPGK
As to B7, the binding result is reported as “binds” in assay [7] and “no binding (tested: OD268 1 (phage solution))” in assay [10].

B8: Clone CH2A2.1 (designed binder)
chain: PCPAPELLGGPSVFLFPPKPKDTLMISRTPEVTCVVVDVSHEDPEVEFIWYVDGVDVRYEWQLPREEQYNSTYRVVSVLTVLHQDWLNGKEYKCKVSNKALPAPIEKTISKAKGQPREPQVYTLPPSRDELTKNQVSLTCLVKGFYPSDIAVEWESNGQPENNYKTTPPVLDSDGSFFLYSKLTVDKSRWQQGNVFSCSVMHEALHNHYTQKSLSLSPGK
On to B8, for which the binding result in [11] and in [12] was “binds” in each case.
